Experimental data: US20250340857A1 (SEISMIC THERAPEUTIC, published 2025)
Where a chain is given by its changes, count along the chain named.

B1: FP13 (Fc fusion)
chain: DKTHTCPPCPAPEAAGAPSVFLFPPKPKDTLMISRTPEVTCVVVDVSHEDPEVKFNWYVDGVEVHNAKTKPREEQQNSTYRVVSVLTVLHQDWLNGKEYKCKVSNKALKAPIEKTISKAKGQPREPQVYTLPPSRDELTKNQVSLTCLVKGFYPSDIAVEWESNGQPENNYKTTPPVLDSDGSFFLYSKLTVDKSRWQQGNVFSCSVMHEALHNHYTQKSLSLSPGGGGSGGGGSGGGGSTALGRRKAEDRIKETLWADGVKIDEKDFEHIKSSHEDYFAVEYGKGSGYYDVNKKMDSEDSALCVGAVVTNMFHWWVDQNRENIEKFKKQDPENNGVMKFEGVKEATVDELNHFYRDNRDNYADQSRFFDLIKKHFGNKALNPEELFELYFNGFYYGSSHRYIEDNEPAQNNLFSKVLENNKLLNPERSYGIDGFSNNVINALKSHKVLGLVHTTPLRYRHIISMWGADIDQDGKVKAIYVTDSDDREITFNDNSKRRIGMIRYDVLVDDNGNIRFTGKGATHKEEGAIYAGLYSLSRGDEVWEDYFKKYPEVQENL
B2: FP16 (Fc fusion)
chain: DKTHTCPPCPAPEAAGAPSVFLFPPKPKDTLMISRTPEVTCVVVDVSHEDPEVKFNWYVDGVEVHNAKTKPREEQQNSTYRVVSVLTVLHQDWLNGKEYKCKVSNKALKAPIEKTISKAKGQPREPQVYTLPPSRDELTKNQVSLTCLVKGFYPSDIAVEWESNGQPENNYKTTPPVLDSDGSFFLYSKLTVDKSRWQQGNVFSCSVMHEALHNHYTQKSLSLSPGGGGSGGGGSGGGGSTALGRRKAEDRIKETLWADGVKIDEKDFEHIKSSHEDYFAVEYGKGSGYYDVNKKMDSEDTALCVGAVVTNMFHWWVDQNRENIEKFKKQDPENNGVMKFNGVKEATVDELNHFYKEYQSNKYADQSRFFDLIKKHFGNKALNPEELFELYFNGFYYGSSHRYIEDNKPAQNNLFSKVLENNKLLNPERSYGIDGFSNNVINALKSHKVLGLVHTTPLRYRHIISMWGADIDQDGKVKAIYVTDSDDREITFNDNSKRRIGMIRYDVLVDDNGNIRFTGKGATHKEEGAIYAGLYSLSRGDEVWEDYFKKYPEVQENL
B3: FP170 (Fc fusion)
chain 1: B1 chain with T146W, H353E, H453Y
chain 2: DKTHTCPPCPAPEAAGAPSVFLFPPKPKDTLMISRTPEVTCVVVDVSHEDPEVKFNWYVDGVEVHNAKTKPREEQQNSTYRVVSVLTVLHQDWLNGKEYKCKVSNKALKAPIEKTISKAKGQPREPQVYTLPPSRDELTKNQVSLSCAVKGFYPSDIAVEWESNGQPENNYKTTPPVLDSDGSFFLVSKLTVDKSRWQQGNVFSCSVMHEALHNHYTQKSLSLSPG
B4: FP171 (Fc fusion)
chain 1: B1 chain with T146W, M208L, N214S, H353E, H453Y
chain 2: B3 chain 2 with M208L, N214S
B5: FP174 (Fc fusion)
chain 1: DKTHTCPPCPAPEAAGAPSVFLFPPKPKDTLMISRTPEVTCVVVDVSHEDPEVKFNWYVDGVEVHNAKTKPREEQQNSTYRVVSVLTVLHQDWLNGKEYKCKVSNKALKAPIEKTISKAKGQPREPQVYTLPPSRDELTKNQVSLWCLVKGFYPSDIAVEWESNGQPENNYKTTPPVLDSDGSFFLYSKLTVDKSRWQQGNVFSCSVMHEALHNHYTQKSLSLSPGGSSAPGSSAPGSSAPTALGRRKAEDRIKETLWADGVKIDEKDFEHIKSSHEDYFAVEYGKGSGYYDVNKKMDSEDSALCVGAVVTNMFHWWVDQNRENIEKFKKQDPENNGVMKFEGVKEATVDELNEFYRDNRDNYADQSRFFDLIKKHFGNKALNPEELFELYFNGFYYGSSHRYIEDNEPAQNNLFSKVLENNKLLNPERSYGIDGFSNNVINALKSHKVLGLVYTTPLRYRHIISMWGADIDQDGKVKAIYVTDSDDREITFNDNSKRRIGMIRYDVLVDDNGNIRFTGKGATHKEEGAIYAGLYSLSRGDEVWEDYFKKYPEVQENL
chain 2: B3 chain 2
B6: FP175 (Fc fusion)
chain 1: B5 chain 1 with M208L, N214S
chain 2: B3 chain 2 with M208L, N214S
B7: FP178 (Fc fusion)
chain: TALGRRKAEDRIKETLWADGVKIDEKDFEHIKSSHEDYFAVEYGKGSGYYDVNKKMDSEDSALCVGAVVTNMFHWWVDQNRENIEKFKKQDPENNGVMKFEGVKEATVDELNEFYRDNRDNYADQSRFFDLIKKHFGNKALNPEELFELYFNGFYYGSSHRYIEDNEPAQNNLFSKVLENNKLLNPERSYGIDGFSNNVINALKSHKVLGLVYTTPLRYRHIISMWGADIDQDGKVKAIYVTDSDDREITFNDNSKRRIGMIRYDVLVDDNGNIRFTGKGATHKEEGAIYAGLYSLSRGDEVWEDYFKKYPEVQENLDKTHTCPPCPAPEAAGAPSVFLFPPKPKDTLMISRTPEVTCVVVDVSHEDPEVKFNWYVDGVEVHNAKTKPREEQQNSTYRVVSVLTVLHQDWLNGKEYKCKVSNKALKAPIEKTISKAKGQPREPQVYTLPPSRDELTKNQVSLTCLVKGFYPSDIAVEWESNGQPENNYKTTPPVLDSDGSFFLYSKLTVDKSRWQQGNVFSCSVMHEALHNHYTQKSLSLSPG
B8: FP179 (Fc fusion)
chain 1: B7 chain with T463W
chain 2: B3 chain 2
B9: FP183 (Fc fusion)
chain 1: DKTHTCPPCPAPEAAGAPSVFLFPPKPKDTLMISRTPEVTCVVVDVSHEDPEVKFNWYVDGVEVHNAKTKPREEQQNSTYRVVSVLTVLHQDWLNGKEYKCKVSNKALKAPIEKTISKAKGQPREPQVYTLPPSRDELTKNQVSLWCLVKGFYPSDIAVEWESNGQPENNYKTTPPVLDSDGSFFLYSKLTVDKSRWQQGNVFSCSVMHEALHNHYTQKSLSLSPGAEEEKAEEEKAEEEKTALGRRKAEDRIKETLWADGVKIDEKDFEHIKSSHEDYFAVEYGKGSGYYDVNKKMDSEDSALCVGAVVTNMFHWWVDQNRENIEKFKKQDPENNGVMKFEGVKEATVDELNEFYRDNRDNYADQSRFFDLIKKHFGNKALNPEELFELYFNGFYYGSSHRYIEDNEPAQNNLFSKVLENNKLLNPERSYGIDGFSNNVINALKSHKVLGLVYTTPLRYRHIISMWGADIDQDGKVKAIYVTDSDDREITFNDNSKRRIGMIRYDVLVDDNGNIRFTGKGATHKEEGAIYAGLYSLSRGDEVWEDYFKKYPEVQENL
chain 2: B3 chain 2
B10: FP184 (Fc fusion)
chain 1: DKTHTCPPCPAPEAAGAPSVFLFPPKPKDTLMISRTPEVTCVVVDVSHEDPEVKFNWYVDGVEVHNAKTKPREEQQNSTYRVVSVLTVLHQDWLNGKEYKCKVSNKALKAPIEKTISKAKGQPREPQVYTLPPSRDELTKNQVSLWCLVKGFYPSDIAVEWESNGQPENNYKTTPPVLDSDGSFFLYSKLTVDKSRWQQGNVFSCSVMHEALHNHYTQKSLSLSPGEAAAKEAAAKEAAAKTALGRRKAEDRIKETLWADGVKIDEKDFEHIKSSHEDYFAVEYGKGSGYYDVNKKMDSEDSALCVGAVVTNMFHWWVDQNRENIEKFKKQDPENNGVMKFEGVKEATVDELNEFYRDNRDNYADQSRFFDLIKKHFGNKALNPEELFELYFNGFYYGSSHRYIEDNEPAQNNLFSKVLENNKLLNPERSYGIDGFSNNVINALKSHKVLGLVYTTPLRYRHIISMWGADIDQDGKVKAIYVTDSDDREITFNDNSKRRIGMIRYDVLVDDNGNIRFTGKGATHKEEGAIYAGLYSLSRGDEVWEDYFKKYPEVQENL
chain 2: B3 chain 2
B11: FP191 (Fc fusion)
chain 1: DKTHTCPPCPAPEAAGAPSVFLFPPKPKDTLMISRTPEVTCVVVDVSHEDPEVKFNWYVDGVEVHNAKTKPREEQQNSTYRVVSVLTVLHQDWLNGKEYKCKVSNKALKAPIEKTISKAKGQPREPQVYTLPPSRDELTKNQVSLWCLVKGFYPSDIAVEWESNGQPENNYKTTPPVLDSDGSFFLYSKLTVDKSRWQQGNVFSCSVMHEALHNHYTQKSLSLSPGAPAPAPAPAPAPAPTALGRRKAEDRIKETLWADGVKIDEKDFEHIKSSHEDYFAVEYGKGSGYYDVNKKMDSEDSALCVGAVVTNMFHWWVDQNRENIEKFKKQDPENNGVMKFEGVKEATVDELNEFYRDNRDNYADQSRFFDLIKKHFGNKALNPEELFELYFNGFYYGSSHRYIEDNEPAQNNLFSKVLENNKLLNPERSYGIDGFSNNVINALKSHKVLGLVYTTPLRYRHIISMWGADIDQDGKVKAIYVTDSDDREITFNDNSKRRIGMIRYDVLVDDNGNIRFTGKGATHKEEGAIYAGLYSLSRGDEVWEDYFKKYPEVQENL
chain 2: B3 chain 2

target: Human IgE antibody (human); experiment: cell-based or functional assay

Binder | EC50 CE-SDS IgE | EC50 MSD IgE
B1 | 31.9 nM | 
B2 | 47 nM | 
B3 | 14.6 nM | 1.02 nM
B4 | 17.8 nM | 1.35 nM
B5 | 12.2 nM | 0.511 nM
B6 | 179 nM | 1.88 nM
B7 | 2.61 nM | 0.317 nM
B8 | 6.64 nM | 0.424 nM
B9 | 7.63 nM | 0.548 nM
B10 |  | 0.475 nM
B11 | 1.51 nM | 0.555 nM

target: IgG1; experiment: cell-based or functional assay

Binder | EC50 CE-SDS IgG1
B1 | 21300 nM
B2 | 8720 nM
